The text below walks through data of US6566080 (NEW ENGLAND MEDICAL CENTER HOSPITALS, dated 2003).

The Ki is a measure of affinity in units of concentration, obtained from inhibition or displacement. Low values mean higher affinity, high ones lower affinity. The IC50 is the point on the concentration scale where inhibition reaches its midpoint. Lower therefore signals higher potency.

Ends that are not written are not given here.

The target in assay [1] is T1, wild-type human CCK-B/gastrin receptor (human, UniProt P32239 1-447).
T1 sequence: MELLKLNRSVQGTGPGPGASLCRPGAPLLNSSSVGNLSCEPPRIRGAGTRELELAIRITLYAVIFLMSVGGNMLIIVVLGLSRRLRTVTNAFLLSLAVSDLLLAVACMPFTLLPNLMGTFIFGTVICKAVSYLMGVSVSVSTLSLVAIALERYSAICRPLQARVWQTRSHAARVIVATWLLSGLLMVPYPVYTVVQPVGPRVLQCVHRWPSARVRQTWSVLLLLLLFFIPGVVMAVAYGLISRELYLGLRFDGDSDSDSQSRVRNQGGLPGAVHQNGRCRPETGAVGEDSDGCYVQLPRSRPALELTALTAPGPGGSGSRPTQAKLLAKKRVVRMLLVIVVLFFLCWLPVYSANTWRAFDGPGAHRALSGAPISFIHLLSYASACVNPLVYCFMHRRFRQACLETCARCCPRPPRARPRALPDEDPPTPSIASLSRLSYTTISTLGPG
Kind of assay: cell-based or functional assay.

The target in assay [2] is T2, constitutively active human CCK-B/gastrin receptor mutant MH162 (^325L→E) (human, UniProt P32239 1-447).
T2 sequence: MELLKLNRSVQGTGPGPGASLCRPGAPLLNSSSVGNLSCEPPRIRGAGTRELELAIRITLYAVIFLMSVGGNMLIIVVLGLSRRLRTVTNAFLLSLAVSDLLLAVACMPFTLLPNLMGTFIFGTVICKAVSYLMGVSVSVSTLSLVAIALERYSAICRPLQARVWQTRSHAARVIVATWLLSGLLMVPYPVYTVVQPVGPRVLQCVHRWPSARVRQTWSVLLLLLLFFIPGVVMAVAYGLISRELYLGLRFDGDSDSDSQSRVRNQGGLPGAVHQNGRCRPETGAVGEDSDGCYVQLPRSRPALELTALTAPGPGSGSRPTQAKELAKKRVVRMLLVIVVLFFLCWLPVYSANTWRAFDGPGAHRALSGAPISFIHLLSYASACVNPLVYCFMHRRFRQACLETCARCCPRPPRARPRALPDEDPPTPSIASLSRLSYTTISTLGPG
The experiment in a line: cell-based or functional assay.

Assay [3] addresses T1, wild-type human CCK-B/gastrin receptor. The experiment in a line: ^125I-CCK-8 competition binding on transfected COS-7 cells.
The target in assay [4] is T2, constitutively active human …. Described as above.
For assay [5], the target named is T1, wild-type human CCK-B/gastrin receptor. Kind of assay: ^125I-CCK-8 competition binding on COS-7 cells transfected with hCCK-B-pcDNAI. As for the experimental part:
(§1) COS-7 cells (1.5 ×10^6) were plated in 10-cm culture dishes (Nunc) and grown in Dulbecco's modified Eagle's medium containing 10% fetal calf serum in a 5% CO_2, 95% air incubator at 37° C. After an overnight incubation, cells were transfected (Pacholczyk et al., *Nature* 350:350–354, 1991) with 5–7 μg of a pcDNA I expression vector containing hCCKB (HCCKB-pcDNA I). Twenty-four hours after transfection cells were split into 24-well dishes (2 ×10^4 cells/well) (Costar). After an additional 24 hours, competition binding experiments were performed in Hank's buffer supplemented with 25 mM phenylmethylsulfonyl fluoride (PMSF). […] Equilibrium binding occurred after incubation for 80 min. at 37° C. Cell monolayers were then washed three times, hydrolyzed in 1 N NaOH, and the amount of radioactivity to the receptor was quantified. […] All binding experiments were repeated three to five times.
(§2) The competition data were analyzed using computer software which is specifically designed for the purpose of radioligand binding assays (Inplot 4.0, GraphPad, San Diego, Calif.). Analyses of competition and saturation binding data can also be performed using computerized non-linear curve fitting (McPherson, G. A., *J Pharmacol Methods*, 14:213–28, 1985).

The target in assay [6] is T2, constitutively active human …. The experiment in a line: ^125I-CCK-8 competition binding; Ki at wild-type receptor over Ki at MH162. On the procedure: as §1, §2
Assay [7] has as its target T3, wild-type rat CCK-A receptor (rat, UniProt P30551 1-444).
T3 sequence: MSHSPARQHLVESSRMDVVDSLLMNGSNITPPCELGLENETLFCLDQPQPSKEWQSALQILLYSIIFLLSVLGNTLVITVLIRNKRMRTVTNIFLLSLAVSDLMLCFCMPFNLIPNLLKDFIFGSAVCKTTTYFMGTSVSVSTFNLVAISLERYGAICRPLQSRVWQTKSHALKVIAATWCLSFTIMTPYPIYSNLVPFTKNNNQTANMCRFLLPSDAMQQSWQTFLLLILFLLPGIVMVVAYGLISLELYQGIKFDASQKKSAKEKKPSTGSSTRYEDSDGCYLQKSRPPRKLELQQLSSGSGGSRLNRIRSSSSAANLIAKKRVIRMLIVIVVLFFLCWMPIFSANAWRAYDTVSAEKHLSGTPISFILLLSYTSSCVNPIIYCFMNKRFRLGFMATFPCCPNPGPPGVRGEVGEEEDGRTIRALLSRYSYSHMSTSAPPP
Kind of assay: cell-based or functional assay.

QGPWLEEEEEAYGWMDF (peptide, UniProt P01350 76-92, looked up, not fully specified (residue 1, C-terminus), domain: gastrin-17) [Gastrin I (unsulphated gastrin-17)]: the “Signaling potencies of tested ligands, IC50” value in assay [1] worked out at 0.24 nm; in assay [2], 0.2 nm. Further, in assay [2], the “Signaling potencies, Ratio (Wild-type/Mutant)” value was 1.2. Moreover, the Ki turned out to be 1.35 nM in assay [3] and 0.8 nM in assay [4]. In addition, in assay [5], the 50% inhibitory concentration (IC50) came out at 0.94 nM. Further, the “Ratio (Wild-type/Mutant) of Ki” value in assay [6] is 1.69.
As for DYMGWMDF (peptide, UniProt P06307 96-103, looked up, not fully specified (residue 2, C-terminus)) [sulfated CCK-8 (CCK-8s)], the “CCK-8s stimulated (% human basal) inositol phosphate production” value in assay [7] was 684 % human basal.
